± gives the uncertainty stated by the source.
B1: Chromodomain-helicase-DNA-binding protein 5, residues 411 to 463; numbered along this chain, Q8TDI0 (parent)
chain: EEDDHMEFCRVCKDGGELLCCDACPSSYHLHCLNPPLPEIPNGEWLCPRCTCP

Variants of: B1
Test: abundance fitness (aPCA) (normalised: wild type 0, dead -1); higher = more abundant; growth selection in yeast, the domain comes from the species named
Conditions: Homo sapiens

Variant | abundance fitness
F8Y | 0.033 ± 0.088
F8Q | -0.17 ± 0.051
F8G | 0.033 ± 0.044
F8S | -0.099 ± 0.073
F8I | -0.347 ± 0.12
F8E | -0.135 ± 0.083
F8V | -0.152 ± 0.076
F8P | -0.261 ± 0.081
Y28I | -0.535 ± 0.11
Y28V | -0.428 ± 0.064
Y28A | -0.466 ± 0.066
Y28F | -0.007 ± 0.046
Y28D | -0.405 ± 0.076
Y28H | -0.376 ± 0.12
Y28C | -0.653 ± 0.095
Y28P | -0.565 ± 0.076
Y28K | -0.481 ± 0.05
P48Q | -0.09 ± 0.079
P48K | -0.419 ± 0.14
P48W | -0.412 ± 0.12
P48A | -0.27 ± 0.085
P48S | -0.025 ± 0.071
P48T | -0.004 ± 0.092
P48L | -0.564 ± 0.1

Variant | abundance fitness
R10C | -0.296 ± 0.087
R10D | -0.119 ± 0.053
R10A | -0.219 ± 0.075
R10S | -0.089 ± 0.055
R10W | -0.212 ± 0.086
R10F | 0.178 ± 0.12
P53G | -0.097 ± 0.06
L46D | -0.65 ± 0.19
L46W | -0.155 ± 0.083
L46H | -0.152 ± 0.11
L46R | -0.034 ± 0.06
L46K | 0.079 ± 0.089
L46P | -0.559 ± 0.12
L46E | -0.025 ± 0.054
E2A | -0.194 ± 0.091
E2S | -0.062 ± 0.12
E2Q | -0.224 ± 0.14
E2R | -0.042 ± 0.085
E2T | 0.011 ± 0.12
E2G | -0.131 ± 0.054
P36H | -0.211 ± 0.15
P36Y | -0.838 ± 0.22
P36M | -0.026 ± 0.082
P36V | 0.066 ± 0.088

Variant | abundance fitness
P36D | -0.068 ± 0.048
P36F | -0.091 ± 0.12
P36I | 0.125 ± 0.12
P41S | 0.047 ± 0.078
P41N | 0.168 ± 0.15
P41I | -0.159 ± 0.14
P41W | -0.393 ± 0.11
P41Q | -0.051 ± 0.11
P41V | 0.043 ± 0.069
D22K | 0.108 ± 0.052
D22P | 0.008 ± 0.055
D22F | -0.139 ± 0.066
D22L | -0.026 ± 0.044
D22T | 0.038 ± 0.053
D22H | 0.005 ± 0.054
D3I | 0.36 ± 0.07
D3R | 0.14 ± 0.04
D3H | -0.015 ± 0.046
D3V | 0.114 ± 0.054
K13F | -0.546 ± 0.1
K13E | 0.142 ± 0.078
K13S | -0.309 ± 0.06
K13L | -0.206 ± 0.047
